# Assay results published in PMC5971111 (Nature structural & molecular biology, 2018).
# B1: Exo84 (natural protein)
# chain: MVEFSLKKARNNWKHVKKSASSPAKQKTPPSPAKPKQKTKKNPYSDLKDPATSYTLPTINARERSRVATSMQRRLSIHNTNYAPPTLDYSMPLPDMPNMIVPNDNVDSSHNNSSFTTENESVSSKGPSNSLNLSTADLSLNDSSYNKVPARSAMRNTVNPSGSNDPFNNSTSLRKMLANPHFNAKDFVHDKLGNASAITIDKFTSNLTDLSIQVQEEVKLNINKSYNEIMTVNNDLNVAMLELKRVRANINDLNEVLDQCTKIAEKRLQLQDQIDQERQGNFNNVESHSNSPALLPPLKAGQNGNLMRRDRSSVLILEKFWDTELDQLFKNVEGAQKFINSTKGRHILMNSANWMELNTTTGKPLQMVQIFILNDLVLIADKSRDKQNDFIVSQCYPLKDVTVTQEEFSTKRLLFKFSNSNSSLYECRDADECSRLLDVIRKAKDDLCDIFHVEEENSKRIRESFRYLQSTQQTPGRENNRSPNKNKRRSMGGSITPGRNVTGAMDQYLLQNLTLSMHSRPRSRDMSSTAQRLKFLDEGVEEIDIELARLRFESAVETLLDIESQLEDLSERISDEELMLLNLISLKIEQRREAISSKLSQSILSSNEIVHLKSGTENMIKLGLPEQALDLFLQNRSNFIQDLILQIGSVDNPTNYLTQLAVIRFQTIKKTVEDFQDIFKELGAKISSILVDWCSDEVDNHFKLIDKQLLNDEMLSPGSIKSSRKQIDGLKAVGLDFVYKLDEFIKKNSDKIR
# Biological target: T1, Sec5 (S. cerevisiae, UniProt P89102 1-971)
# T1 sequence: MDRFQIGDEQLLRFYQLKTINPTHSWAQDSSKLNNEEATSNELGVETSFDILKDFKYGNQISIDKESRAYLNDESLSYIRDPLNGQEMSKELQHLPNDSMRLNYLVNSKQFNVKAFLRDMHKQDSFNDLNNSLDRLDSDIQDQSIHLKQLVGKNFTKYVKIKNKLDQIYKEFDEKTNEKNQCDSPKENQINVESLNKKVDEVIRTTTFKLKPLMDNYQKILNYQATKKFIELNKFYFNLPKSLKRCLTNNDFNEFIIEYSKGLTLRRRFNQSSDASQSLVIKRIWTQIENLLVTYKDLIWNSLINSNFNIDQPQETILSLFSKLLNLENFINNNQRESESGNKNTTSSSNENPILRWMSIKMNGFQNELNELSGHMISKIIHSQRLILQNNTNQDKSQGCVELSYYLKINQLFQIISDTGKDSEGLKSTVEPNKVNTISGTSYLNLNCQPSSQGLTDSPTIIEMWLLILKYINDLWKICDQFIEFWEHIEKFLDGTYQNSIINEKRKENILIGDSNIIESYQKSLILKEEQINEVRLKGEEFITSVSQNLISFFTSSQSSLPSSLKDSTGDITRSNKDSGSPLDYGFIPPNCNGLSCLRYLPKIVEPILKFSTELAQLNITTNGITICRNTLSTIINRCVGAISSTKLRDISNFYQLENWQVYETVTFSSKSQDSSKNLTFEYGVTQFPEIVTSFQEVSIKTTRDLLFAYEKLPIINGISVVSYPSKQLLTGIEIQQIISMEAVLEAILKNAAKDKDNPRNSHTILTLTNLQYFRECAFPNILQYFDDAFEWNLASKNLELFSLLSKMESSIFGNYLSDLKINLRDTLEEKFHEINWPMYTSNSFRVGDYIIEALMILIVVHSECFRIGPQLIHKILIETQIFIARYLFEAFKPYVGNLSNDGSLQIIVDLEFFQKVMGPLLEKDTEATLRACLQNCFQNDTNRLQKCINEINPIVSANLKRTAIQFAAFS
# Assay: […]
binder,measurement,value
B1,binding result,binds
